Reference: patent US20160333092A1 (ORDER MADE MEDICAL RESEARCH, published 2016)

How the values were obtained:
[1] = biological target: T1, human SLC6A6 (solute carrier family 6 (neurotransmitter transporter, taurine), member 6) (human, UniProt P31641 1-620); assay: immunocytological staining of formalin-fixed HT-29 and LoVo cells, antibody 10 ug/mL
T1 construct: also called native SLC6A6; SLC6A6 on the cell membrane
T1 sequence: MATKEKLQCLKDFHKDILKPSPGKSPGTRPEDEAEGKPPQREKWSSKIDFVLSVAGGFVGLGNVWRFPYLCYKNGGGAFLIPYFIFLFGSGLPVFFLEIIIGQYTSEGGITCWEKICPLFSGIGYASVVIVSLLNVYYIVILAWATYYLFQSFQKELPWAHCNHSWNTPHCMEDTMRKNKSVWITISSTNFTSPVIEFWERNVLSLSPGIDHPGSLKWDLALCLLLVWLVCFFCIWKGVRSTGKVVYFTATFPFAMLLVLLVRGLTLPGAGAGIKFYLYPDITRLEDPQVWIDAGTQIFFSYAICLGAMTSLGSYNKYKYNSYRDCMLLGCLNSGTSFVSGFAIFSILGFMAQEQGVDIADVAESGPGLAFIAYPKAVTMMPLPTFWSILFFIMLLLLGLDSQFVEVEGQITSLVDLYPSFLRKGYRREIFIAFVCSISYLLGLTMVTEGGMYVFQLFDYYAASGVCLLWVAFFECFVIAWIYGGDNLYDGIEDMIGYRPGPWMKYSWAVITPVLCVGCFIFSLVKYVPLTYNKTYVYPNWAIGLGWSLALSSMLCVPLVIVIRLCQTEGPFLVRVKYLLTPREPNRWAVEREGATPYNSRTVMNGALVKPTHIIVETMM
Protocol: (§1) Moreover, as controls for comparison purposes, the anti-SLC6A6 antibodies “4B9b” and “5H12d” disclosed in WO2012/029990 were also analyzed in the same manner. Hereinafter, antibodies produced by hybridoma cells are also represented by their respective clone numbers.
(§2) HT-29 and LoVo cells were cultured to reach 80% confluency and then seeded onto cover slips coated with Cellmatrix Type I-A (Nitta Gelatin Inc., Japan). After culture for 2 days, the cells were fixed with 10% neutral buffered formalin (WAKO). After being treated with 0.3% (v/v) aqueous hydrogen peroxide for 20 minutes, the cover slips were washed three times with TBST and treated with TBST containing 5% (w/v) skimmed milk, followed by addition of the antibodies purified in (7) above at a concentration of 10 μg/mL and reaction at 4° C. for 16 hours. […] After washing three times with TBST, the cover slips were sealed with Mounting Medium (Vector Shield).

[2] = biological target: T2, partial protein of the extracellular region of SLC6A6 (amino acid residues 143 to 216, E. coli recombinant) (human, UniProt P31641 143-216); assay: ELISA on coated recombinant SLC6A6 partial protein (residues 143-216), HRP-labelled secondary antibody
T2 construct: also called SLC6A6 partial protein; recombinant protein
T2 sequence: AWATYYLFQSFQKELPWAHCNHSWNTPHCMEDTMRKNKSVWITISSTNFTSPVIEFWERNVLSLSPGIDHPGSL
Protocol: The recombinant protein obtained in (4) above (10 μg/ml) was dispensed in 100 μL volumes into MaxiSorp 96-well plates (Nunc) and adsorbed onto the plates at room temperature for 1 hour. After adsorption, each well was washed with TBS-T (TBS-T (25 mM Tris, 150 mM NaCl, 0.05% (v/v) Tween 20, pH 7.4) and charged with skimmed milk (GIBCO), which had been diluted to 5% with TBS-T, to conduct blocking for 30 minutes at room temperature. After each well was washed three times with 200 μL of TBS-T, mouse plasma samples collected from the tail vein were each diluted 1/2000-fold with TBS-T and added to the ELISA plates in a volume of 100 μL per well, followed by reaction at room temperature for 1 hour. Each well was washed three times with 200 μL of TBS-T.
The thus obtained monoclonal antibody-producing hybridoma cells were cultured in ten 10 cm dishes to reach 90% confluency and then cultured for 10 days in a 1:1 mixture of HT medium (Invitrogen) and EX CELL Sp2/0 (Nichirei Bioscience Inc., Japan). The culture supernatants were collected and purified with a Protein G column. The Protein G column (GE Healthcare) was used in a volume of 0.5 mL relative to 100 mL of the culture supernatant. The cultured solutions were each passed at a flow rate of 1 to 3 ml/min through the Protein G column which had been equilibrated with PBS(−), followed by washing with 6 mL of washing buffer (25 mM Tris-HCl (pH 7.4), 140 mM NaCl, 10 mM KCl). Then, antibody proteins were eluted with 1 mL of elution buffer (0.1 M glycine-HCl (pH 2.5) or 0.1 M glycine-HCl (pH 3.0)) and neutralized with 0.5 M Tris-HCl (pH 7.4) to be within pH 7.0 to 7.4. The antibodies were concentrated with Amicon Ultra 30 (Millipore) and the buffer was replaced with PBS(−).

[3] = biological target: T1, human SLC6A6 (solute carrier family 6 …); assay: immunocytological staining of formalin-fixed HT-29 and LoVo cells, antibody 10 ug/mL; compared with 4B9b and 5H12d
Protocol: as §1, §2

[4] = biological target: T1, human SLC6A6 (solute carrier family 6 …); assay: binding activity on HCT15 and HT-29 cells, antibody 10 ug/mL, anti-human IgG-HRP secondary antibody
Protocol: In this case, the antibody concentration was set to 10 μg/mL.

Binder | binding result [1] | binding result [2] | binding result [3] | binding result [4]
monoclonal antibody produced from mouse-mouse hybridoma 422 (antibody, V domains shown, also called 422 antibody; antibody clone 422) VH: VQLQQSGPEVVKPGPSLRMSCKASGYFFTGNSMNWVKKTHGRSLEWIGLIDLSNGETRFNQKFKGKATLTVDKSSGTAYMELLNLTSEDSAVYYCASRSAMIMPCFSHWGQGTLVTVSA VL: DIVMTQSHNFMSTSIGDRVNITCKASQDVATAVAWFQQKPGQSPKLLIYWTSTRHTGVPDRFTGSGYGTDFTLTISHVQSEDLADYFCQQYDTYPYTFGGGTKLEIK | binds | binds | – | –
monoclonal antibody produced from mouse-mouse hybridoma 303 (antibody, V domains shown) VH: VQLQQPGAEFVKPGTSVKLSCKASGYNFTRYWINWVKLRPGQGLEWIGNIYPATNGINYNEKFKSKATLTVDTFSSTAYMQLSSLASEDSGLYYCARCKTMLSRCAWFPYWGQGTLVTVSA VL: DIQMTQTTSSLSASLGDRVTINCRASQDISNYLNWYQQKPDGTVKLLIYDTSRLHSRVPSRFSGSGSGTDYSLTISNLEQEDIATYFCQQGNMLPWTFGGGTKLEIK | – | binds | binds | –
monoclonal antibody produced from mouse-mouse hybridoma 419 (antibody, V domains shown) VH: IQLQQSGPELVKPGASVKVSCKAFGYAFTRHNMYWVKQRHGKCLEWIGYIDPFNGGTSYNQKFKGKATLTVDKSSSTAYMHLNSLTSEDSAVYYCARVYGNYAWFAYWGQGTLVTVSA VL: DIVMTQSHKFMSTSVGDRVSITCKASQDVSTAVAWYQQIPGQSPKLLIYSSSYRYTGVPDRFTGSGSGTDFTFTISSVQAEDLAVYYCQQHYNTPWTFGGGTKLEIK | – | binds | binds | –
human-mouse chimeric 205 antibody (antibody, human IgG1, kappa, V domains shown, Human IgG1 / human kappa constant regions) VH: QVKLQQSGPELVKPGASVKMSCKASGYTFTSYVMHWVKQKPGQGLEWIGYINPYNDGTKYNEKFKGKATLTSDKSSSTAYMELSSLTSEDSAVYYCARRKAWFAYWGQGTLVTVSA VL: DIQMTQSPASQSASLGESVTITCLASQTIGTWLAWYQQKPGKSPQLLIYAATSLADGVPSRFSGSGSGTKFSFKISSLQAEDFVSYYCQQLYSTPLTFGGGTKLEIKR | – | – | – | binds
monoclonal antibody produced from mouse-mouse hybridoma 205 (antibody, V domains shown) VH: VKLQQSGPELVKPGASVKMSCKASGYTFTSYVMHWVKQKPGQGLEWIGYINPYNDGTKYNEKFKGKATLTSDKSSSTAYMELSSLTSEDSAVYYCARRKAWFAYWGQGTLVTVSA VL: DIQMTQSPASQSASLGESVTITCLASQTIGTWLAWYQQKPGKSPQLLIYAATSLADGVPSRFSGSGSGTKFSFKISSLQAEDFVSYYCQQLYSTPLTFGGGTKLEIK | – | binds | binds | –
